Measured values taken from article PMC8581553 (Cell reports, 2021).

B1: HA-SNAP-GluK2 (receptor, rat, UniProt P42260 32-908, looked up)
chain: TTHVLRFGGIFEYVESGPMGAEELAFRFAVNTINRNRTLLPNTTLTYDTQKINLYDSFEASKKACDQLSLGVAAIFGPSHSSSANAVQSICNALGVPHIQTRWKHQVSDNKDSFYVSLYPDFSSLSRAILDLVQFFKWKTVTVVYDDSTGLIRLQELIKAPSRYNLRLKIRQLPADTKDAKPLLKEMKRGKEFHVIFDCSHEMAAGILKQALAMGMMTEYYHYIFTTLDLFALDVEPYRYSGVNMTGFRILNTENTQVSSIIEKWSMERLQAPPKPDSGLLDGFMTTDAALMYDAVHVVSVAVQQFPQMTVSSLQCNRHKPWRFGTRFMSLIKEAHWEGLTGRITFNKTNGLRTDFDLDVISLKEEGLEKIGTWDPASGLNMTESQKGKPANITDSLSNRSLIVTTILEEPYVLFKKSDKPLYGNDRFEGYCIDLLRELSTILGFTYEIRLVEDGKYGAQDDVNGQWNGMVRELIDHKADLAVAPLAITYVREKVIDFSKPFMTLGISILYRKPNGTNPGVFSFLNPLSPDIWMYILLAYLGVSCVLFVIARFSPYEWYNPHPCNPDSDVVENNFTLLNSFWFGVGALMQQGSELMPKALSTRIVGGIWWFFTLIIISSYTANLAAFLTVERMESPIDSADDLAKQTKIEYGAVEDGATMTFFKKSKISTYDKMWAFMSSRRQSVLVKSNEEGIQRVLTSDYAFLMESTTIEFVTQRNCNLTQIGGLIDSKGYGVGTPMGSPYRDKITIAILQLQEEGKLHMMKEKWWRGNGCPEEESKEASALGVQNIGGIFIVLAAGLVLSVFVAVGEFLYKSKKNAQLEKRSFCSAMVEELRMSLKCQRRLKHKPQAPVIVKTEEVINMHTFNDRRLPGKETMA
modifications: SNAP tag labelled with SBG-OG (Oregon Green); for smFRET with BG-LD555 and BG-LD655
B2: HA-SNAP-GluK1 (receptor, rat, UniProt P22756 31-949, looked up)
chain: QTSPQVLRIGGIFETVENEPVNVEELAFKFAVTSINRNRTLMPNTTLTYDIQRINLFDSFEASRRACDQLALGVAALFGPSHSSSVSAVQSICNALEVPHIQTRWKHPSVDSRDLFYINLYPDYAAISRAVLDLVLYYNWKTVTVVYEDSTGLIRLQELIKAPSRYNIKIKIRQLPPANKDAKPLLKEMKKSKEFYVIFDCSHETAAEILKQILFMGMMTEYYHYFFTTLDLFALDLELYRYSGVNMTGFRKLNIDNPHVSSIIEKWSMERLQAPPRPETGLLDGMMTTEAALMYDAVYMVAIASHRASQLTVSSLQCHRHKPCALGPRFMNLIKEARWDGLTGRITFNKTDGLRKDFDLDIISLKEEGTEKASGEVSKHLYKVWKKIGIWNSNSGLNMTDGNRDRSNNITDSLANRTLIVTTILEEPYVMYRKSDKPLYGNDRFEAYCLDLLKELSNILGFLYDVKLVPDGKYGAQNDKGEWNGMVKELIDHRADLAVAPLTITYVREKVIDFSKPFMTLGISILYRKPNGTNPGVFSFLNPLSPDIWMYVLLACLGVSCVLFVIARFTPYEWYNPHPCNPDSDVVENNFTLLNSFWFGVGALMQQGSELMPKALSTRIVGGIWWFFTLIIISSYTANLAAFLTVERMESPIDSADDLAKQTKIEYGAVRDGSTMTFFKKSKISTYEKMWAFMSSRQQSALVKNSDEGIQRVLTTDYALLMESTSIEYVTQRNCNLTQIGGLIDSKGYGVGTPIGSPYRDKITIAILQLQEEGKLHMMKEKWWRGNGCPEEDSKEASALGVENIGGIFIVLAAGLVLSVFVAIGEFLYKSRKNNDVEQKGKSSRLRFYFRNKVRFHGSKKESLGVEKCLSFNAIMEELGISLKNQKKLKKKSRTKGKSSFTSILTCHQRRTQRKETVA
modifications: SNAP tag labelled with SBG-OG (Oregon Green); for smFRET with BG-LD555 and/or BG-LD655
B3: HA-SNAP-GluK3 (receptor, rat, UniProt P42264 32-919, looked up)
chain: MPHVIRIGGIFEYADGPNAQVMNAEEHAFRFSANIINRNRTLLPNTTLTYDIQRIHFHDSFEATKKACDQLALGVVAIFGPSQGSCTNAVQSICNALEVPHIQLRWKHHPLDNKDTFYVNLYPDYASLSHAILDLVQSLKWRSATVVYDDSTGLIRLQELIMAPSRYNIRLKIRQLPIDSDDSRPLLKEMKRGREFRIIFDCSHTMAAQILKQAMAMGMMTEYYHFIFTTLDLYALDLEPYRYSGVNLTGFRILNVDNAHVSAIVEKWSMERLQAAPRAESGLLDGVMMTDAALLYDAVHIVSVCYQRASQMTVNSLQCHRHKPWRFGGRFMNFIKEAQWEGLTGRIVFNKTSGLRTDFDLDIISLKEDGLEKVGVWSPADGLNITEVAKGRGPNVTDSLTNRSLIVTTLLEEPFVMFRKSDRTLYGNDRFEGYCIDLLKELAHILGFSYEIRLVEDGKYGAQDDKGQWNGMVKELIDHKADLAVAPLTITHVREKAIDFSKPFMTLGVSILYRKPNGTNPSVFSFLNPLSPDIWMYVLLAYLGVSCVLFVIARFSPYEWYDAHPCNPGSEVVENNFTLLNSFWFGMGSLMQQGSELMPKALSTRIIGGIWWFFTLIIISSYTANLAAFLTVERMESPIDSADDLAKQTKIEYGAVKDGATMTFFKKSKISTFEKMWAFMSSKPSALVKNNEEGIQRTLTADYALLMESTTIEYITQRNCNLTQIGGLIDSKGYGIGTPMGSPYRDKITIAILQLQEEDKLHIMKEKWWRGSGCPEEENKEASALGIQKIGGIFIVLAAGLVLSVLVAVGEFIYKLRKTAEREQRSFCSTVADEIRFSLTCQRRLKHKPQPPMMVKTDAVINMHTFNDRRLPGKDSMSCSTSLAPVFP
modifications: SNAP tag labelled with SBG-OG (Oregon Green)
B4: Halo-GluK5 (receptor, rat, UniProt Q63273 15-979, looked up)
chain: NPSCQVLSSLRMAAILDDQTVCGRGERLALALAREQINGIIEVPAKARVEVDIFELQRDSQYETTDTMCQILPKGVVSVLGPSSSPASASTVSHICGEKEIPHIKVGPEETPRLQYLRFASVSLYPSNEDVSLAVSRILKSFNYPSASLICAKAECLLRLEELVRGFLISKETLSVRMLDDSRDPTPLLKEIRDDKVSTIIIDANASISHLVLRKASELGMTSAFYKYILTTMDFPILHLDGIVEDSSNILGFSMFNTSHPFYPEFVRSLNMSWRENCEASTYPGPALSAALMFDAVHVVVSAVRELNRSQEIGVKPLACTSANIWPHGTSLMNYLRMVEYDGLTGRVEFNSKGQRTNYTLRILEKSRQGHREIGVWYSNRTLAMNATTLDINLSQTLANKTLVVTTILENPYVMRRPNFQALSGNERFEGFCVDMLRELAELLRFRYRLRLVEDGLYGAPEPNGSWTGMVGELINRKADLAVAAFTITAEREKVIDFSKPFMTLGISILYRVHMGRKPGYFSFLDPFSPAVWLFMLLAYLAVSCVLFLAARLSPYEWYNPHPCLRARPHILENQYTLGNSLWFPVGGFMQQGSEIMPRALSTRCVSGVWWAFTLIIISSYTANLAAFLTVQRMEVPVESADDLADQTNIEYGTIHAGSTMTFFQNSRYQTYQRMWNYMQSKQPSVFVKSTEEGIARVLNSRYAFLLESTMNEYHRRLNCNLTQIGGLLDTKGYGIGMPLGSPFRDEITLAILQLQENNRLEILKRKWWEGGRCPKEEDHRAKGLGMENIGGIFVVLICGLIIAVFVAVMEFIWSTRRSAESEEVSVCQEMLQELRHAVSCRKTSRSRRRRRPGGPSRALLSLRAVREMRLSNGKLYSAGAGGDAGAHGGPQRLLDDPGPPGGPRPQAPTPCTHVRVCQECRRIQALRASGAGAPPRGLGTPAEATSPPRPRPGPTGPRELTEHE
modifications: Halo tag labelled with CA-Sulfo549 (two-colour) or CA-Sulfo646 (three-colour)

Key:
[1] = biological target: the molecule itself; test: single-molecule pull-down
[2] = biological target: B3; test: single-molecule pull-down

stoichiometry N [2] | Binder | stoichiometry N [1]
– | B1 | 4
– | B2 | 4
– | B3 | 4
≤ 2 GluK5 subunits in a di-heteromer | B4 | –
